Assay results from patent publication US12630632B2, “Bispecific HER2 and CD3 binding molecules” (Memorial Sloan Kettering Cancer Center, priority 2017, dated 2026).

Test system: naïve T cells
Experiment: T cell proliferation (WST-8)
Format: cell-based, human
Settings: 67 nM antibody, 6 days
Experimental: For T cell proliferation, naïve T cells were purified from human PBMC using Pan T cell isolation kit (Miltenyi Biotec). 2×10^5 purified T cells were mixed with different antibodies in 96-well cell culture plate to a final volume of 250 μl/well. T cells were cultured and maintained in RPMI-1640 supplemented with 10% FBS in 37° C. for 6 days. T cell proliferation was quantitated using the WST-8 kit as described above.

B1: huOKT3 Fab: monovalent Fab prepared from huOKT3 IgG1 (antibody, V domains shown)
VH: QVQLVQSGGGVVQPGRSLRLSCKASGYTFTRYTMHWVRQAPGKGLEWIGYINPSRGYTNYNQKFKDRFTISRDNSKNTAFLQMDSLRPEDTGVYFCARYYDDHYCLDYWGQGTPVTVSS
VL: DIQMTQSPSSLSASVGDRVTITCSASSSVSYMNWYQQTPGKAPKRWIYDTSKLASGVPSRFSGSGSGTDYTFTISSLQPEDIATYYCQQWSSNPFTFGQGTKLQITR
  T cell proliferation in the absence of tumor targets: negligible effects
